Test results from publication PMC7140980.
pKd: −log10 of the molar value. Like-named read-outs stand apart in the source and are kept apart here.

Tests used:
Test in all cases: transient-state stopped-flow spectrofluorometry
[1] = biological target: L47fUAA GCK (human pancreatic glucokinase with L-(7-hydroxycoumarin-4-yl)ethylglycine in place of Leu47) (human) (UniProt P35557)
[2] = biological target: L47fUAA GCK (human pancreatic glucokinase with L-(7-hydroxycoumarin-4-yl)ethylglycine in place of Leu47) (human) (UniProt P35557); remark: listed apart in the source
[3] = biological target: L47fUAA GCK (human pancreatic glucokinase with L-(7-hydroxycoumarin-4-yl)ethylglycine in place of Leu47) (human) (UniProt P35557); remark: listed apart in the source

K2 (step 2, equilibrium constant of isomerisation) [1]: 0.51
pKd [1]: 4.68
Kd,intrinsic (step 1, encounter complex) [1]: 32000 nM
k1 (step 1, formation of the encounter complex) [1]: 64000 M⁻¹ s⁻¹
k−1 (step 1, dissociation of the encounter complex) [1]: 2.06 s⁻¹
k−2 (step 2, isomerisation reverse) [1]: 0.21 s⁻¹
pKd [2]: 6.91
K2 (step 2, equilibrium constant of isomerisation) [3]: 0.72
pKd [3]: 6.91
Kd,intrinsic (step 1, encounter complex) [3]: 210 nM
k1 (step 1, formation of the encounter complex) [3]: 170000 M⁻¹ s⁻¹
k−1 (step 1, dissociation of the encounter complex) [3]: 0.036 s⁻¹
k−2 (step 2, isomerisation reverse) [3]: 0.36 s⁻¹
Substance: glucokinase regulatory protein (GKRP) (from UniProt Q14397 1-625) (natural protein)
